{
  "source": "patent US20190257837",
  "proteins": {"B1": {"name": "human recombinant cathepsin S (protein)", "chain": "LPDSVDWREKGCVTEVKYQGSCGACWAFSAVGALEAQLKLKTGKLVSLSAQNLVDCSTEKYGNKGCNGGFMTTAFQYIIDNKGIDSDASYPYKAMDQKCQYDSKYRAATCSKYTELPYGREDVLKEAVANKGPVSVGVDARHPSFFLYRSGVYYEPSCTQNVNHGVLVVGYGDLNGKEYWLVKNSWGHNFGEEGYIRMARNKGNHCGIASFPSYPEI"}},
  "target": "T1, human recombinant nidogen-1 (intact, incubated without proteases), P14543",
  "T1 chain": "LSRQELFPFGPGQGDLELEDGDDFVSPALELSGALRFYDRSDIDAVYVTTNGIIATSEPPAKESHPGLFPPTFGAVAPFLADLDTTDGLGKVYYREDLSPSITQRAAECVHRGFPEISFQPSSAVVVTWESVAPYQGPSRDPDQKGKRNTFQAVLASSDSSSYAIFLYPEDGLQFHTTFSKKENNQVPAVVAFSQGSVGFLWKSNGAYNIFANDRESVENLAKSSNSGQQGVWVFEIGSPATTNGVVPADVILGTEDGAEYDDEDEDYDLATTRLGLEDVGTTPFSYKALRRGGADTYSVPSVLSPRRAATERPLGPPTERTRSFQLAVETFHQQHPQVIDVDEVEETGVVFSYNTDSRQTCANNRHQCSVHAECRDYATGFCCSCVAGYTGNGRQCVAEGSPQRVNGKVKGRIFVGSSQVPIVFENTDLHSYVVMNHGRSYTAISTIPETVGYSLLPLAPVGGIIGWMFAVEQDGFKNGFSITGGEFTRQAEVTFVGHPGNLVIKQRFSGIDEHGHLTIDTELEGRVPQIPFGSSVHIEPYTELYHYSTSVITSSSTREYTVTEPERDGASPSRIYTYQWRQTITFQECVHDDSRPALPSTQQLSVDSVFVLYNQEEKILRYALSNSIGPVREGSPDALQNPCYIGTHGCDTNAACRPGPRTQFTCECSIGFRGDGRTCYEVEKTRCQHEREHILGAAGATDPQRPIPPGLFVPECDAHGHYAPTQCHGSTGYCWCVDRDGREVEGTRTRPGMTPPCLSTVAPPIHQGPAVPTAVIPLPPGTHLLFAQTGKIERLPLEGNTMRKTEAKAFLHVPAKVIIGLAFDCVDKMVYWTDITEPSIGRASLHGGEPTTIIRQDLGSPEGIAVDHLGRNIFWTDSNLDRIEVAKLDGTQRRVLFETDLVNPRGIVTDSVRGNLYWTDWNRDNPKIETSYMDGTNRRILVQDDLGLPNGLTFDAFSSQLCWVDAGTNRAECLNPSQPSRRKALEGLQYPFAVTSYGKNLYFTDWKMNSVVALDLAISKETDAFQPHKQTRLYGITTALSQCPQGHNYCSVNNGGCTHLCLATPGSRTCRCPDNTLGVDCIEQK",
  "data": [
    {"protein": "B1", "values": [
      {"measurement": "NIC levels after incubating nidogen-1 with CatS (competitive NIC ELISA)", "result": "Approximately 5-fold higher levels of NIC were detected after incubating nidogen-1 with CatS for 24 h"}
    ]}
  ]
}
